In patent US7786083B2, “Metastin derivatives and use thereof” (Takeda Pharmaceutical Company Limited, priority 2006, dated 2010):
Each block holds one binder with its values, some of them ahead of it. *1 amine or outer side, *2 acyl side, *3 side chain or, on linkers, in order; H or OH if unused. [ ]: non-standard residue; d: D form. Ser(Me) = O-methylserine, COC[C@H](N[*:1])C(=O)[*:2]; 2Nal = N[C@@H](Cc1ccc2ccccc2c1)C(=O)O; Arg(Me) = CNC(=N)NCCC[C@H](N)C(=O)O; Dap(CONH2) = NC(=O)NC[C@H](N)C(=O)O; Hyp = O=C(O)[C@@H]1C[C@@H](O)CN1; Cha = N[C@@H](CC1CCCCC1)C(=O)O; Nva = CCC[C@H](N)C(=O)O

Biological target: metastin receptor (OT7T175) stably expressed on CHO/dhfr- cells (human or rat, not given)
Experiment: cell-based or functional assay

Binder: Ac-[dY]ENT[Cha]G[Ser(Me)][Arg(Me)]W-NH2 [des(1)-Ac-[D-Tyr2,Glu3,Thr5,Cha6,Ser(Me)8,Arg(Me)9,Trp10]MS10]
Specific Activity (EC50 of test compound based on EC50 of Metastin (45-54)); agonist activity, intracellular calcium ion level, FLIPR (ratio to Metastin (45-54)): 0.5

Binder: Ac-[dY][Hyp]NT[Cha]GLRW-NH2 (also: Gly6-Leu7 -CONH- replaced by (E) CH=CH) [des(1)-Ac-[D-Tyr2,Hyp3,Thr5,Cha6,Gly7Ψ((E)CH═CH)Leu8,Trp10]MS10]
Specific Activity (EC50 of test compound based on EC50 of Metastin (45-54)); agonist activity, intracellular calcium ion level, FLIPR (ratio to Metastin (45-54)): 0.6

Binder: Ac-[dY][Hyp]NT[Cha]GL[Arg(Me)]W-NH2 (also: Gly6-Leu7 -CONH- replaced by -CH2S-) [des(1)-Ac-[D-Tyr2,Hyp3,Thr5,Cha6,Gly7Ψ(CH2S)Leu8,Arg(Me)9,Trp10]MS10]
Specific Activity (EC50 of test compound based on EC50 of Metastin (45-54)); agonist activity, intracellular calcium ion level, FLIPR (ratio to Metastin (45-54)): 1.7

Binder: Ac-[dY]ENT[Cha]G[Nva][Arg(Me)]W-NH2 [des(1)-Ac-[D-Tyr2,Glu3,Thr5,Cha6,Nva8,Arg(Me)9,Trp10]MS10]
Specific Activity (EC50 of test compound based on EC50 of Metastin (45-54)); agonist activity, intracellular calcium ion level, FLIPR (ratio to Metastin (45-54)): 0.4

B3: des(1)-Ac-[D-Tyr2,Hyp3,Thr5,Cha6,Arg(Me)9,Trp10]MS10 (peptide)
peptide: Ac-[dY][Hyp]NT[Cha]GL[Arg(Me)]W-NH2
SMILES: CNC(=N)NCCC[C@H](NC(=O)[C@H](CC(C)C)NC(=O)CNC(=O)[C@H](CC1CCCCC1)NC(=O)[C@@H](NC(=O)[C@H](CC(N)=O)NC(=O)[C@@H]1C[C@@H](O)CN1C(=O)[C@@H](Cc1ccc(O)cc1)NC(C)=O)[C@@H](C)O)C(=O)N[C@@H](Cc1c[nH]c2ccccc12)C(N)=O
Specific Activity (EC50 of test compound based on EC50 of Metastin (45-54)); agonist activity, intracellular calcium ion level, FLIPR (ratio to Metastin (45-54)): 0.3

Binder: Ac-[dY][Hyp][Dap(CONH2)]T[Cha]GLRW-NH2 (also: Gly6-Leu7 -CONH- replaced by (E)-CH=CH-) [des(1)-Ac-[D-Tyr2,Hyp3,Alb4,Thr5,Cha6,Gly7Ψ((E)CH═CH)Leu8,Trp10]MS10]
Specific Activity (EC50 of test compound based on EC50 of Metastin (45-54)); agonist activity, intracellular calcium ion level, FLIPR (ratio to Metastin (45-54)): 0.5

Now from value to binder:

Specific Activity (EC50 of test compound based on EC50 of Metastin (45-54)); agonist activity, intracellular calcium ion level, FLIPR (ratio to Metastin (45-54)): 1.2
Binder: Ac-[dY][Hyp]NTFGL[Arg(Me)]W-NH2 (also: Gly6-Leu7 -CONH- replaced by -CH2S-) [des(1)-Ac-[D-Tyr2,Hyp3,Thr5,Gly7Ψ(CH2S)Leu8,Arg(Me)9,Trp10]MS10]

Specific Activity (EC50 of test compound based on EC50 of Metastin (45-54)); agonist activity, intracellular calcium ion level, FLIPR (ratio to Metastin (45-54)): 0.4
Binder: Ac-[dY][Hyp]NTFGLRW-NH2 (also: Gly6-Leu7 -CONH- replaced by (E) CH=CH) [des(1)-Ac-[D-Tyr2,Hyp3,Thr5,Gly7Ψ((E)CH═CH)Leu8,Trp10]MS10]

Specific Activity (EC50 of test compound based on EC50 of Metastin (45-54)); agonist activity, intracellular calcium ion level, FLIPR (ratio to Metastin (45-54)): 1
B1: des(1)-Ac-[D-Tyr2,Hyp3,Thr5,Nal(2)6,Arg(Me)9,Trp10]MS10 (peptide)
peptide: Ac-[dY][Hyp]NT[2Nal]GL[Arg(Me)]W-NH2
modifications: not fully specified (residue 7); printed as Ac-D-Tyr-Hyp-Asn-Thr-Nal(2)-Gly-Ala(cPr)-Arg(Me)-Trp-NH2

Specific Activity (EC50 of test compound based on EC50 of Metastin (45-54)); agonist activity, intracellular calcium ion level, FLIPR (ratio to Metastin (45-54)): 0.5
B2: des(1)-Ac-[D-Tyr2,Hyp3,Thr5,Cha6,Nva8,Arg(Me)9,Trp10]MS10 (peptide)
peptide: Ac-[dY][Hyp]NT[Cha]G[Nva][Arg(Me)]W-NH2
SMILES: CCC[C@H](NC(=O)CNC(=O)[C@H](CC1CCCCC1)NC(=O)[C@@H](NC(=O)[C@H](CC(N)=O)NC(=O)[C@@H]1C[C@@H](O)CN1C(=O)[C@@H](Cc1ccc(O)cc1)NC(C)=O)[C@@H](C)O)C(=O)N[C@@H](CCCNC(=N)NC)C(=O)N[C@@H](Cc1c[nH]c2ccccc12)C(N)=O

Specific Activity (EC50 of test compound based on EC50 of Metastin (45-54)); agonist activity, intracellular calcium ion level, FLIPR (ratio to Metastin (45-54)): 0.5
B4: des(1)-Ac-[D-Tyr2,Hyp3,Thr5,Cha6,Ser(Me)8,Arg(Me)9,Trp10]MS10 (peptide)
peptide: Ac-[dY][Hyp]NT[Cha]G[Ser(Me)][Arg(Me)]W-NH2
SMILES: CNC(=N)NCCC[C@H](NC(=O)[C@H](COC)NC(=O)CNC(=O)[C@H](CC1CCCCC1)NC(=O)[C@@H](NC(=O)[C@H](CC(N)=O)NC(=O)[C@@H]1C[C@@H](O)CN1C(=O)[C@@H](Cc1ccc(O)cc1)NC(C)=O)[C@@H](C)O)C(=O)N[C@@H](Cc1c[nH]c2ccccc12)C(N)=O
